Measurements from patent US20240376170A1 (BRIGHT PEAK THERAPEUTICS, published 2024).
Values joined by “and” are separate entries in the source; they are usually repeats but may differ in a detail not shown here. Equal entries are not always repeated. Where two headings read alike, the source gives them in different places. Primed or numbered codes have the meaning given here. [ ]: non-standard residue; d: D form. Ygp = O-(8x polyethylene glycol-amino)-tyrosine (Tyr, amino-capped PEG8); Yn3 = O-(9x polyethylene glycol-azido)-tyrosine (Tyr, azide-capped PEG9); Ygp(7) = Tyr with amino-capped PEG8, O-(PEG8-amino)-tyrosine; Yn3(7) = Tyr with azide-capped PEG9, O-(PEG9-azido)-tyrosine; Ygp″ = O-(8x polyethylene glycol-amino)-tyrosine; Yn3″ = O-(9x polyethylene glycol-azido)-tyrosine; Ygp(3) = O-(PEG8-amino)-tyrosine; Yn3(3) = O-(PEG9-azido)-tyrosine; hSer = N[C@@H](CCO)C(=O)O; Nle = CCCC[C@H](N)C(=O)O; Dab = NCC[C@H](N)C(=O)O

T1: IL-2 receptor βγ complex on C57BL/6 mouse splenocytes (mouse, UniProt P16297 27-539; P34902 23-369)
T1 sequence (looked up) 1: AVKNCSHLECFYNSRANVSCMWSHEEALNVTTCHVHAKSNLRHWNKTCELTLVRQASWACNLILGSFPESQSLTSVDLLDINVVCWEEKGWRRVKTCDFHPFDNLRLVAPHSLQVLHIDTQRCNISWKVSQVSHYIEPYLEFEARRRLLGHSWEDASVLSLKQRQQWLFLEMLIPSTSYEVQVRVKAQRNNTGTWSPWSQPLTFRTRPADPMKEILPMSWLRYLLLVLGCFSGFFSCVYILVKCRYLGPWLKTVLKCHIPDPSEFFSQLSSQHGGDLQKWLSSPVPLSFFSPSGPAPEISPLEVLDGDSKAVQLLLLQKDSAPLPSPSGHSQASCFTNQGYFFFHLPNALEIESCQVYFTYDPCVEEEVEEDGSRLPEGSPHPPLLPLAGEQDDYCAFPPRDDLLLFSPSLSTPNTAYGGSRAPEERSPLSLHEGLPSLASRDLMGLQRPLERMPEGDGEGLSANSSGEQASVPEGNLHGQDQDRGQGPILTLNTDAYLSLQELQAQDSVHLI
T1 sequence (looked up) 2: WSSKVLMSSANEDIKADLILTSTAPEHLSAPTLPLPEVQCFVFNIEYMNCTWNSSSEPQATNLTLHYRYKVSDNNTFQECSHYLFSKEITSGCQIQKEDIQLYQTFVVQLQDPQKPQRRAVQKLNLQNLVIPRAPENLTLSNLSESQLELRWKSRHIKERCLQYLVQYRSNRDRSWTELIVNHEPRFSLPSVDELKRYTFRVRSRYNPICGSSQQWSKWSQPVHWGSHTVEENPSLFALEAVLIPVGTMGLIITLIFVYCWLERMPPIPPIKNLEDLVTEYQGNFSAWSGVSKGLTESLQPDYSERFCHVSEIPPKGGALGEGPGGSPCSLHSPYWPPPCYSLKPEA

T2: IL-2 receptor βγ complex (human, UniProt P14784 27-551; P31785 23-369)
T2 sequence (looked up) 1: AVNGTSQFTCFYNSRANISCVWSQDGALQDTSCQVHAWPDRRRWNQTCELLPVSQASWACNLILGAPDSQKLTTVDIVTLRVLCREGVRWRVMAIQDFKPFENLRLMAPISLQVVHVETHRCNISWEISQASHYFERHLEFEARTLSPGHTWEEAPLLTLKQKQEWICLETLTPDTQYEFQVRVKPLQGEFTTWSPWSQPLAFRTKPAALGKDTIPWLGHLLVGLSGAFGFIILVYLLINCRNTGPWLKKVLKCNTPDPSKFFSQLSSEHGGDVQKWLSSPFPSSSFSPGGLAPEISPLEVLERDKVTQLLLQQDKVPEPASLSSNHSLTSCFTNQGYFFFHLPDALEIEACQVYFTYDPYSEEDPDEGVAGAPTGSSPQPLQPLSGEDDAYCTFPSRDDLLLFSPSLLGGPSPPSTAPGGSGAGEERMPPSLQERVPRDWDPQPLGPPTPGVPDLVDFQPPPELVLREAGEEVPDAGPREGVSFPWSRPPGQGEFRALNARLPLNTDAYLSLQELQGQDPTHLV
T2 sequence (looked up) 2: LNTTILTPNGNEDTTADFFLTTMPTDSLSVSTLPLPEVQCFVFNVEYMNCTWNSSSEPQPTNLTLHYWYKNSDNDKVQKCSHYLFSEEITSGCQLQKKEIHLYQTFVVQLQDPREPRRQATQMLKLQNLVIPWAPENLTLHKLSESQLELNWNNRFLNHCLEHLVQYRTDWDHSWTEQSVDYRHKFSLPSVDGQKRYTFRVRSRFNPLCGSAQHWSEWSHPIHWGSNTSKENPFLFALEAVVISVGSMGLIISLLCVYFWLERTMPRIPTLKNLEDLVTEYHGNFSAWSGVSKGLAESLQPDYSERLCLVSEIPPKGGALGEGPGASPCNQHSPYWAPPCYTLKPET

T3: IL-2 receptor βγ complex on human T cells (human, UniProt P14784 27-551; P31785 23-369)
T3 sequence (looked up) 1: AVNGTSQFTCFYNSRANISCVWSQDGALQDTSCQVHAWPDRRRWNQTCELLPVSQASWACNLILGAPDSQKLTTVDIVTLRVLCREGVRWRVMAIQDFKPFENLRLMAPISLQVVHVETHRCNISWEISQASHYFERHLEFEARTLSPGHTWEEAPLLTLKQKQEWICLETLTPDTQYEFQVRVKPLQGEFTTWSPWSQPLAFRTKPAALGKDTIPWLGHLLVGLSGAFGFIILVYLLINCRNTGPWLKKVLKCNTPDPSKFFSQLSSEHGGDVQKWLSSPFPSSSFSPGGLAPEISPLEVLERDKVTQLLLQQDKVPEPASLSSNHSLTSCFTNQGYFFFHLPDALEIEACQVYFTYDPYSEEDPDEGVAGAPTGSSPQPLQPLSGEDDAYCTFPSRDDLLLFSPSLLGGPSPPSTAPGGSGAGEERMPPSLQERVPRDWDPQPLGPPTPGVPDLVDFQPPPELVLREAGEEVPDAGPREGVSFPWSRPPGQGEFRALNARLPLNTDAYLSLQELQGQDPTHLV
T3 sequence (looked up) 2: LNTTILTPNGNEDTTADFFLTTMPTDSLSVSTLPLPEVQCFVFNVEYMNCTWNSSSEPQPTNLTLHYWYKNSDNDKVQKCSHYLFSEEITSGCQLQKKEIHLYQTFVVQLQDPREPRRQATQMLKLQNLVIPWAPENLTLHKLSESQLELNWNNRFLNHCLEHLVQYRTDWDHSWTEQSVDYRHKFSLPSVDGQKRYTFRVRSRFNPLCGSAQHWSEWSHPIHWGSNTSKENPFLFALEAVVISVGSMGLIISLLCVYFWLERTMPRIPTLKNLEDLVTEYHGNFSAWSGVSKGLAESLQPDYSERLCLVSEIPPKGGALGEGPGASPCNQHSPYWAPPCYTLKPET


Key:
Assay in all cases: cell-based or functional assay
[1] = biological target: T1, IL-2 receptor βγ complex on C57BL/6 …
IL-2 receptor βγ complex [2] = biological target: T2, IL-2 receptor βγ complex
IL-2 receptor βγ complex [3] = biological target: T2, IL-2 receptor βγ complex; remark: listed apart in the source
[4] = biological target: T3, IL-2 receptor βγ complex on human T …
[5] = biological target: T3, IL-2 receptor βγ complex on human T …; remark: listed apart in the source

Row | Average EC50, pSTAT5 Assay in mouse splenocytes [1] [nM] | Average EC50, pSTAT5 Assay in NK cells (IL-2 receptor βγ complex [3]) | Binder | further results
1 | 24 | – | CMP-003 (ligand, ends and bridges not checked) APTSSSTKKTQLQLEHLLLDLQ[Nle]ILNGINNYKNPKLTR[Nle]L[hSer][Yn3]KF[Ygp][Nle]PKKATELKHLQCLEEELKPLEEVL[hSer]LAQSKNFHLRPRDLISNINVIVLELKGSETTF[hSer]CEYADETATIVEFLNRWITFSQSIISTLT | –
2 | 75.1 | 0.288 nM | CMP-138, MMP2 cleaved molecule (ligand, ends and bridges not checked; also: cleaved by MMP2, cleavage product not defined, N-terminal PEG4 link and Glu29 side-chain attachment of the cleavable peptide not defined) APTSSSTKKTQLQLEHLLLDLQ[Nle]ILNGIENYKNPKLTR[Nle]L[hSer][Yn3]KF[Ygp][Nle]PKKATELKHLQCLEEELKPLEEVL[hSer]LAQSKNFHLRPRDLISNINVIVLELKGSETTF[hSer]CEYADETATIVEFLNRWITFSQSIISTLT | Average EC50, pSTAT5 Assay (T cells) (IL-2 receptor βγ complex [2]): 2.32 nM
3 | – | – | CMP-149 (ligand, also: further groups not given here) APTSSSTKKTQLQLEHLLKDLQ[Nle]ILNGINNYKNPKLTR[Nle]L[hSer][Yn3(3)]KF[Ygp(3)][Nle]PKKATELKHLQCLEEELKPLEEVL[hSer]LAQSKNFHLRPRDLISNINVIVLELKGSETTF[hSer]CEYADETATIVEFLNRWITFSQSIISTLT | Average EC50, pSTAT5 Assay (T cells), intact molecule [4]: 46.7 nM
4 | 89.2 | 0.352 nM | CMP-151, MMP2 cleaved molecule (ligand, not fully specified; also: cleaved by MMP2, cleavage product not defined, N-terminal glutaryl-PEG9 link and Lys23 side-chain attachment not defined) APTSSSTKKTQLQLEHLLLDLQKILNGINNYKNPKLTR[Nle]L[hSer][Yn3″]KF[Ygp″][Nle]PKKATELKHLQCLEEELKPLEEVL[hSer]LAQSKNFHLRPRDLISNINVIVLELKGSETTF[hSer]CEYADETATIVEFLNRWITFSQSIISTLT | Average EC50, pSTAT5 Assay (T cells) (IL-2 receptor βγ complex [2]): 1.81 nM
5 | – | – | CMP-148, MMP2 cleaved (ligand, also: MMP2-cleaved form, remnant not given here, Lys15 side chain attached moiety) APTSSSTKKTQLQLKHLLLDLQ[Nle]ILNGINNYKNPKLTR[Nle]L[hSer][Yn3(3)]KF[Ygp(3)][Nle]PKKATELKHLQCLEEELKPLEEVL[hSer]LAQSKNFHLRPRDLISNINVIVLELKGSETTF[hSer]CEYADETATIVEFLNRWITFSQSIISTLT | Average EC50, pSTAT5 Assay (T cells), MMP2 cleaved molecule [4]: 0.95 nM
6 | 55.2 | 82 pM and 0.246 nM | CMP-145, MMP2 cleaved molecule (ligand, ends and bridges not checked; also: Lys23 side chain attached to another sequence (cleavable peptide), cut by MMP2, product not given here) APTSSSTKKTQLQLEHLLLDLQKILNGINNYKNPKLTR[Nle]L[hSer][Yn3]KF[Ygp][Nle]PKKATELKHLQCLEEELKPLEEVL[hSer]LAQSKNFHLRPRDLISNINVIVLELKGSETTF[hSer]CEYADETATIVEFLNRWITFSQSIISTLT | –
7 | 84.7 | 0.277 nM | CMP-136, MMP2 cleaved molecule (ligand, ends and bridges not checked; also: cleaved by MMP2, cleavage product not defined, N-terminal PEG9 link and Glu29 side-chain attachment of the cleavable peptide not defined) APTSSSTKKTQLQLEHLLLDLQ[Nle]ILNGIENYKNPKLTR[Nle]L[hSer][Yn3]KF[Ygp][Nle]PKKATELKHLQCLEEELKPLEEVL[hSer]LAQSKNFHLRPRDLISNINVIVLELKGSETTF[hSer]CEYADETATIVEFLNRWITFSQSIISTLT | Average EC50, pSTAT5 Assay (T cells) (IL-2 receptor βγ complex [2]): 2.4 nM
8 | – | – | CMP-150, MMP2 cleaved (ligand, not fully specified; also: further groups not given here) APTSSSTKKTQLQLEHLLLDLK[Nle]ILNGINNYKNPKLTR[Nle]L[hSer][Yn3(3)]KF[Ygp(3)][Nle]PKKATELKHLQCLEEELKPLEEVL[hSer]LAQSKNFHLRPRDLISNINVIVLELKGSETTF[hSer]CEYADETATIVEFLNRWITFSQSIISTLT | Average EC50, pSTAT5 Assay (T cells), MMP2 cleaved molecule [4]: 0.45 nM
9 | – | – | CMP-150 (ligand, also: further groups not given here) APTSSSTKKTQLQLEHLLLDLK[Nle]ILNGINNYKNPKLTR[Nle]L[hSer][Yn3(3)]KF[Ygp(3)][Nle]PKKATELKHLQCLEEELKPLEEVL[hSer]LAQSKNFHLRPRDLISNINVIVLELKGSETTF[hSer]CEYADETATIVEFLNRWITFSQSIISTLT | Average EC50, pSTAT5 Assay (T cells), intact molecule [4]: 6.38 nM
10 | 45.7 | – | CMP-003, MMP2 treated (ligand, ends and bridges not checked) APTSSSTKKTQLQLEHLLLDLQ[Nle]ILNGINNYKNPKLTR[Nle]L[hSer][Yn3]KF[Ygp][Nle]PKKATELKHLQCLEEELKPLEEVL[hSer]LAQSKNFHLRPRDLISNINVIVLELKGSETTF[hSer]CEYADETATIVEFLNRWITFSQSIISTLT | –
11 | – | – | CMP-149, MMP2 cleaved (ligand, also: MMP2-cleaved form, remnant not given here, Lys19 side chain attached moiety) APTSSSTKKTQLQLEHLLKDLQ[Nle]ILNGINNYKNPKLTR[Nle]L[hSer][Yn3(3)]KF[Ygp(3)][Nle]PKKATELKHLQCLEEELKPLEEVL[hSer]LAQSKNFHLRPRDLISNINVIVLELKGSETTF[hSer]CEYADETATIVEFLNRWITFSQSIISTLT | Average EC50, pSTAT5 Assay (T cells), MMP2 cleaved molecule [4]: 9.56 nM
12 | – | – | CMP-130 (ligand, ends and bridges not checked) APTSSSTKKTQLQLE[Dab]LLLDLQ[Nle]ILNGINNYKNPKLTR[Nle]L[hSer][Yn3(7)]KF[Ygp(7)][Nle]PKKATELKHLQCLEEELKPLEEVL[hSer]LAQSKNFHLRPRDLISNINVIVLELKGSETTF[hSer]CEYADETATIVEFLNRWITFSQSIISTLT | Average EC50, pSTAT5 Assay (T cells), intact molecule [5]: 66.8 nM
